The series “SEC” deals with the molecule itself. Description: SEC.
Series [1] addresses full length human SLBP, unphosphorylated, untagged, co-expressed with hSLIP1 in E. coli (human, UniProt Q14493 1-270). Description: AUC.
The series “AUC” concerns the molecule itself. Description: AUC.

Positions count from the first letter of the chain named. In names and notes the source's numbering stands. A value given as a limit tells only on which side of the number the result lay.

B1: MIF4Gdb from Danio rerio (zebrafish orthologue of SLIP1) (natural protein, Danio rerio (zebrafish))
chain: ENSSKEDYKIQSFDLETQKLLKTALKDPGSVDLEKVSSVIVDQSLKDQVFSREAGRICYTIVQAEAKQTNGSVFRRNLLNRLQQEFKAREETRKRSTQEWVCLVSFICNIFDYLKVNNMPMVALVHPVYDCLFRLAQSDALKNEEEVDCLVLQLHRIGDQLEKMNVQLMDELFNLLRDGFLLQEDLSSMGRLLLLEILEFRAGGWKLSDTAQKYYYSEVTD
B1: the stoichiometry N (commonly the number of molecules, sites or subunits per partner or assembly) in “SEC” came out at 2.

B2: human SLIP1, wild type, (His)6-tagged, co-expressed with hSLBP from pRSF-Duet (natural protein, UniProt A9UHW6 1-222, looked up)
chain: MGEPSREEYKIQSFDAETQQLLKTALKDPGAVDLEKVANVIVDHSLQDCVFSKEAGRMCYAIIQAESKQAGQSVFRRGLLNRLQQEYQAREQLRARSLQGWVCYVTFICNIFDYLRVNNMPMMALVNPVYDCLFRLAQPDSLSKEEEVDCLVLQLHRVGEQLEKMNGQRMDELFVLIRDGFLLPTGLSSLAQLLLLEIIEFRAAGWKTTPAAHKYYYSEVSD
Take B2: in series [1], the equilibrium dissociation constant (Kd) (usually a measure of binding affinity in units of concentration) was less than 0.9 nM.

B3: R202A human SLIP1, (His)6-tagged, expressed alone from pET28a (natural protein, UniProt A9UHW6 1-222, looked up)
chain: B2 chain with R202A
On to B3, for which the “stoichiometry N” value in the series “AUC” was determined as 2.

These data come from article PMC3580866 (Biochemistry, 2013).
